For orientation: koff means the rate constant with which the complex falls apart. The term kon denotes the second-order rate constant of association. Low readings indicate slow association, high ones fast association.

The source of these data is patent US6399065 (SCHERING, dated 2002).

First the molecules themselves.
B1: SLAM-Ig (SLAM-immunoglobulin fusion protein: entire extracellular domain of human SLAM fused to the Fc portion of human IgG1 heavy chain) (Fc fusion)
chain: ASYGTGGRMMNCPKILRQLGSKVLLPLTYERINKSMNKSIHIVVTMAKSLENSVENKIVSLDPSEAGPPRYLGDRYKFYLENLTLGIRESRKEDEGWYLMTLEKNVSVQRFCLQLRLYEQVSTPEIKVLNKTQENGTCTLILGCTVEKGDHVAYSWSEKAGTHPLNPANSSHLLSLTLGPQHADNIYICTVSNPISNNSQTFSPWPGCRTDPSETKP
notes: Fluorescein conjugated for flow cytometry; also called recombinant SLAM-Ig; soluble form of SLAM (SLAM-Ig); not shown: Fc portion of the human IgG1 heavy chain
B2: human SLAM (SLAM1, encoded by pSURslam1), cell surface (receptor)
chain: RMMNCPKILRQLGSKVLLPLTYERINKSMNKSIHIVVTMAKSLENSVENKIVSLDPSEAGPPRYLGDRYKFYLENLTLGIRESRKEDEGWYLMTLEKNVSVQRFCLQLRLYEQVSTPEIKVLNKTQENGTCTLILGCTVEKGDHVAYSWSEKAGTHPLNPANSSHLLSLTLGPQHADNIYICTVSNPISNNSQTFSPWPGCRTDPSETKPWAVYAGLLGGVIMILIMVVILQLRRRGKTNHYQTTVEKKSLTIYAQVQKPGPLQKKLDSFPAQDPCTTIYVAATEPVPESVQETNSITVYASVTLPES

Data set [1] addresses human SLAM (SLAM1, encoded by pSURslam1), cell surface (human) (UniProt Q13291). The data set is described as follows: cell-based or functional assay.
For data set [2], the target named is B2. Nature of the data set: flow cytometry on different SLAM-expressing cell types; reference mAb A12. The source says: (§1) The A12 anti-SLAM mAb has been described. Phycoerythrin conjugated CD45RO and CD3 mAbs were purchased from Becton-Dickinson. Cells stained with mAbs, SLAM-Ig or CD40-Ig were washed three times with PBS, 2% FCS and analyzed using a FACScan (Becton-Dickinson).
However, SLAM-Ig did bind to EBV-transformed B-cell lines and CD4^+ T-cell clones, both cell types which we have shown to express SLAM. In no cell types tested did SLAM-Ig bind to cells not expressing SLAM. In addition, the levels of SLAM-Ig binding co-modulated with SLAM expression on CD45RO^+ T cells following activation with anti-CD3. The level of SLAM-IG staining relative to A12 staining on different cell-types was consistent with that observed on L-cell transfectants being 5-fold lower and Ca^++ independent.

Data set [3] deals with the molecule itself. The data set is described as follows: SPR (BIACORE), SLAM-Ig immobilized, SLAM-Ig in solution; apparent Kd from the rate constants. As for the experimental part:
The equilibrium constants for SLAM/SLAM interactions were analyzed by surface plasmon resonance using a BIACORE™ (Pharmacia) instrument. An anti-SLAM Ab 7D4 was used.
(§2) Ab 7D4/SLAM-Ig and SLAM-Ig/SLAM-Ig binding kinetics and affinity were measured. About 8000 resonance units (RUs) of SLAM-Ig were covalently attached to the dextran matrix in the sensor chip via its lysines, according to the manufacturers protocol (BIACORE™ manual, Pharmacia Biosensor). Buffer (phosphate-buffer saline, PBS, pH 7.0) was passed through the flow cell until all of the dissociable protein was removed and the baseline remained stable. Solutions containing various concentrations of the antibody 7D4 in PBS (ranging from 10 nM to 500 nM) were then passed through the flow cell. An increase in mass of protein bound was observed, followed by a decrease when the protein solution was replaced with buffer. A non-linear data analysis protocol, O'Shannessy, et al. (1993) *Anal. Biochem.* 212:457–468, was used to analyze the data to determine the association (k_a) and dissociation (k_d) rate constants. The equilibrium dissociation constant K_d was then calculated from the ratio k_d/k_a.
SLAM-Ig/SLAM-Ig binding kinetics were measured in a similar manner. […]
In general terms: SPR reads the build-up and loss of mass on a sensor chip optically.

For data set [4], the target named is B2. The data set is described as follows: flow cytometry on SLAM/L cells; reference mAb A12. As for the experimental part: The binding of SLAM-Ig to SLAM transfectants is specific for the SLAM portion of the molecule and not the Ig, as the staining was performed in the presence of excess IgG in the 30% human serum added. Furthermore, SLAM transfectants were not stained by other Fc containing molecules such as CD40-Ig. The binding of SLAM-Ig was about 5-fold lower than the binding to SLAM/L cells observed using an equivalent concentration of the mAb A12. […] SLAM-Ig binding to transfected cells was not inhibited by EDTA.
as §1
A general note: In flow cytometry, cells or beads pass a laser one at a time.

Data set [5] deals with the molecule itself. The data set is described as follows: SPR (BIACORE), SLAM-Ig immobilized, SLAM-Ig in solution at 100 nM to 1500 nM, 5 µl/min. Here is the method:
as §2
SLAM-Ig/SLAM-Ig binding kinetics were measured in a similar manner. After immobilization of SLAM-Ig to the chip, solutions of SLAM-Ig at concentrations ranging from 100 nM to 1500 nM were passed through the flow cell at a flow rate of 5 μl/min. From the association and dissociation phases, the corresponding rate constants and thus the equilibrium binding constant were obtained.

Data set [6] deals with the molecule itself. The data set is described as follows: cell-based or functional assay.

In data set [1], “anti-SLAM monoclonal antibody A12 (IgG1)” gave an IFN-γ production (pg/ml) by antigen-stimulated T-cell clone Th0/ChT38; no antibody 5207, control Ab 7463 of 20600 pg/mL; an IFN-γ production (pg/ml) by antigen-stimulated T-cell clone Th0/MoT81; no antibody 5423, control Ab 6596 of 18200 pg/mL; an IFN-γ production (pg/ml) by antigen-stimulated T-cell clone Th1/HY06; no antibody 5982, control Ab 5904 of 21900 pg/mL; an IFN-γ production (pg/ml) by antigen-stimulated T-cell clone Th1/TA20; no antibody 8374, control Ab 8070 of 15400 pg/mL. In data set [1], this molecule gave an IFN-γ production (pg/ml) by antigen-stimulated T-cell clone Th2/MoT72; no antibody 496, control Ab 170 of 8580 pg/mL; an IFN-γ production (pg/ml) by antigen-stimulated T-cell clone Th2/NP12; no antibody 962, control Ab 902 of 8300 pg/mL; an IFN-γ production (pg/ml) by antigen-stimulated T-cell clone Th2/NP44; no antibody 1073, control Ab 1319 of 7660 pg/mL; an IFN-γ production by Th2 clones, fold upregulation of 5 to 17 fold. In data set [1], this molecule returned an IL-4 production (pg/ml) by antigen-stimulated T-cell clone Th0/ChT38; no antibody 12907, control Ab 10102 of 15000 pg/mL; an IL-4 production (pg/ml) by antigen-stimulated T-cell clone Th0/MoT81; no antibody 8455, control Ab 8451 of 11100 pg/mL; an IL-4 production (pg/ml) by antigen-stimulated T-cell clone Th1/HY06; no antibody 48, control Ab 40 of 90 pg/mL; an IL-4 production (pg/ml) by antigen-stimulated T-cell clone Th1/TA20; no antibody 62, control Ab 69 of 97 pg/mL. Further, in data set [1], the IL-4 production (pg/ml) by antigen-stimulated T-cell clone Th2/MoT72; no antibody 8805, control Ab 8542 came out at 16500 pg/mL; the IL-4 production (pg/ml) by antigen-stimulated T-cell clone Th2/NP12; no antibody 6636, control Ab 6486 came to 11100 pg/mL; the IL-4 production (pg/ml) by antigen-stimulated T-cell clone Th2/NP44; no antibody 11617, control Ab 11738 was 10400 pg/mL; the anti-CD3 induced T-cell proliferation at optimal anti-CD3, fold increase lay in the range of 2 to 3 fold.

Regarding B1, in data set [2], the “fold lower staining relative to A12 staining” value was 5 fold. Moreover, the Kd in data set [3] was determined as 920 nM. The “fold lower binding than an equivalent concentration of mAb A12” value in data set [4] was about 5 fold. Also, in data set [5], the koff amounted to 0.011 s⁻¹ and the kon was found to be 12000 M⁻¹ s⁻¹.

In the case of B2, the “proliferation of T cell clone B21 activated with SLAM/L cells, fold enhancement by cyclosporin at 2 µg/ml” value in data set [6] turned out to be 2 fold.
